Measurements published in the nanobody polyreactivity screen of Harvey et al. (2022).

Test: yeast display, Sf9 membrane polyspecificity reagent, FACS + sequencing; frameworks hold sequencing errors
How it was run: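 Polyreactivity labels are assigned by the sorting gate from which each nanobody was recovered. The gates were low and high (top ~1%), set on anti-HA fluorescence for expression and streptavidin fluorescence for reagent binding. Before sorting, galactose-induced (36–48 hours) yeast display cells were stained for 1 hour at 4 °C with 10% biotinylated, detergent-solubilized Sf9 membrane reagent.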

| Sequence | polyreactivity (PSR sort gate) |
| --- | --- |
| QVQLVESGGGLFQAGGSLRLSCAASGFTFDYYAMGWYRPAPGKERELVAAISRAGSTNYADSVKGRFTISRDNAKNTVYLQMNSLKPEDTAVYYCNKGYHSWSRLSQFGWSYDYWGQGTQVTVSS | high polyreactivity |
| QVQLVESGGGLFQAGGSLRLSCAASGFTFGIYAMGWYRQAPGKERELVAAITKRGGITSYADSVKGRFTISRDNAKNTVYLQMNSLKPEDTAVYYCAKIGGFLSYWSGDYWGQGTQVTVSS | low polyreactivity |
| QVQLVESGGGLFQAGGSLRLSCAASGFTFSNYAMGWYRKAPGKERELVAAITRRGGRTRYADSVKGRFTISRDNAKNTVYLQMNSLKPEDTAVYYCARSRYRYIVTTLYLYDYWGQGTQVTVSS | high polyreactivity |
| QVQLVESGGGLFQAGGSLRLSCAASGFTFVYYAMGWYRQAPGKERELVASISGGGRTYYADSVKGRFTISRENAKNTGYLQMNSLIPEDTAVYYCAARYWDYRNRWLYVYWGQGTQLTVSS | high polyreactivity |
| QVQLVESGGGLFQAGGSLRLSCAASGFTFYVYAMGWYRQAPGKERELVAAISSGGGSTYYADSVKGRFTISRDNAKNTVYLQMNSLKPEDTAVYYCNKLFPGTYDGAHGYWGQGTQVTVSS | low polyreactivity |
| QVQLVESGGGLFQAGGSLRLSCAASGIIFAVYDMGWYRQAPGKERELVAAISWSGGSTYYADSVKGRFTISRDNAKNTVYLQMNSLKPEDTAVYYCNRVRYSRLGDYWGQGSQVTVSS | high polyreactivity |
| QVQLVESGGGLFQAGGSLRLSCAASGIIFYYNTMGWYRQAPGKDRELVAAISQRGRSTYYADSVKGRFTISRDNAKNTVYFHLNSLKPEDTAVFYCNKLRNSHGFRYDYWGQGTQVTVSS | high polyreactivity |
| QVQLVESGGGLFQAGGSLRLSCAASGLIIAYYAMRWYRQAPGKERELVAAISSVGSTYYADSVNGRFTISRDNAKNTVYLQMNSLKPEDTAVYYCAAAPRGGMYYWGQGTQVTVSS | high polyreactivity |
| QVQLVESGGGLFQAGGSLRLSCAASGLTFGGNAMGWYRHAPGKERELVAAISSGGSTNYADSVKGRFTISRDNAKNTVYLQMNSLKPEDTAVYYCAVEAWSVPPYDYWGQGTQVTVSS | low polyreactivity |
| QVQLVESGGGLFQAGGSLRLSCAASGNTFRRNTMGWYRQAPPKERELVATISWRGGKTFYADSVKGRFTISRDNAKNTVYLQMNSLKPEDTAVYYCAADTRTQTYIYGYWGQGTQVTVSS | high polyreactivity |
| QVQLVESGGGLFQAGGSLRLSCAASGRIFIVITMGWYRQAPGKERELVATIDSDGDTNYADSVKGRFTISRDNAKNTVYLQMNSLKPEDTAVYYCAAYYTHTLAALKGGRMDYWGQGTQVTVSS | low polyreactivity |
| QVQLVESGGGLFQAGGSLRLSCAASGRIFKYAMGWYRQAPGKERELVAAISSSGGRTYYADSVKGRFTISRDNAKNTVYLQMNSLKPEDTAVYYCAATSYNTQSAFYYWGQGTQVTVSS | high polyreactivity |
| QVQLVESGGGLFQAGGSLRLSCAASGRIFRGYAMGWYRQAPGKERELVAAIDRVGRTKYADSVKGRFTISRDNAKNTVYLHMNSLKPEDTAVYYCAAKASRVDWGYGYWGQGTQVTVSA | high polyreactivity |
| QVQLVESGGGLFQAGGSLRLSCAASGRILNINAMGWYRQAPGKERELVAAITWRGGRTFYADSVKGRFTISRDNAKNTVYLQMNSLKPEDTAVYYCAASSNTWYPTGYYWGQGTQVTVSS | high polyreactivity |
| QVQLVESGGGLFQAGGSLRLSCAASGRIVGLYAMGWYRPAPGKERELVAAISRGGSTNYADSVKGRFTISRDNAKNTVYLQMNSQKPEDPAVYYCNARYVKYYTYLYNYDYWGQGTQVTVSS | high polyreactivity |
| QVQLVESGGGLFQAGGSLRLSCAASGRTFRVYAMGWYRQAPGKEREFVAAISYSGGRTNYADSVKGRFTISRDYAKNTVYLQKNSLKPEDTAVYYCAARYTWAEGDYWGQGTQVTVSS | low polyreactivity |
| QVQLVESGGGLFQAGGSLRLSCAASGRTLPAYAMGWYRQAPGKERELVAAISWGGGSTYYADSVKGRFTISRDNAKNTVYLQMNSLKPEDTSVYYCAVAGYWFAVAEYEYWGQGTQVTVSS | low polyreactivity |
| QVQLVESGGGLFQAGGSLRLSCAASGSIFGHYAMGWYRQAPGKERELVAAISYSGGSTYYADSVKGRFTISRDNAKNTVYLHMNSLKPEDTAVYYCNADLYDAGSEMDYWGQGTQVTVSS | high polyreactivity |
| QVQLVESGGGLFQAGGSLRLSCAASGSIFRYNTMGWYRHAPGKESELVARISSGGSTYYADSVKGRFTISRDNAKNTVYLQMNSLKPEDTAVYYCAAVSRHRGWDRYYWGQGTQVTVSS | high polyreactivity |
| QVQLVESGGGLFQAGGSLRLSCAASGSIFSWNDIGRYIQAPGKERELVAAITSGGSTYYADSVKGRFTISRDNAKNTVYLQMNSLKPEDTAVYYCAAGQDLHDFDYWGQGTQVTVSS | low polyreactivity |
| QVQLVESGGGLFQAGGSLRLSCAASGSIFWSYAMGWYRQAPGKERELVAAISSGGSTNYADSVKGRFTISRDNAKNTVYLQMNSLKPEDTAVYYCNAVGAKGYVKGFDYWGQGTQVTVSS | low polyreactivity |
| QVQLVESGGGLFQAGGSLRLSCAASGSIFWSYAMGWYRQAPGKERELVAAISSGGSTNYADSVKGRFTISRDNAKNTVYLQMNSLQPEDTAVYYCNALGAKGYVKGFDYWGQGTQVTVSS | low polyreactivity |
| QVQLVESGGGLFQAGGSLRLSCAASGSSFPFYAMGWYRQAPGKERELVASISSGGSTNYADSVKGRFTISRDNAKNTVYLQMNSLKPEDTAVYYCNADVPYRWDTWFQVVYPESYDYWGQGTQVTVSS | low polyreactivity |
| QVQLVESGGGLFQAGGSLRLSCAASGSTFAVYAMGWYRQAPGKERELVAVISWSDGRTYYADSVKGRFTISRDNAKNTVYLQMNSLKPEDTAVYYCNARLDTFVPRYGYWGHGTQVTVSS | high polyreactivity |
| QVQLVESGGGLFQAGGSLRLSCAASGSTFDVNTMGGYRQAPGKERELVAAIRLRGGSTYYADSVKGRFTISRYNAKNTVYLQMNSLKPEDTAVYYCAARYPWVYYDFDYWGQGTQVTVSS | low polyreactivity |
| QVQLVESGGGLFQAGGSLRLSCAASGSTFKRYAMGWYRQAPGKERELVAAITLSGGNTYYADSVKGRFTISRYNAKNTVYLQMNSLKPEDTAVYYCAARRYRGYDYWGQGTQVTVSS | high polyreactivity |
| QVQLVESGGGLFQAGGSLRLSCAASGSTLWRNAMGWYRQATGKERELVAAITRRGGITYYADSVKGRFTISRDNAKNTVYLQMNSLKPEDTAVYYCNAVRSTDGSDYWGQGTQVTVSS | high polyreactivity |
| QVQLVESGGGLFQAGGSLRLSCAASGYTFPLYDMGWYRQAPGKERELVADINIGGASTYYADSVKGRFTISRDNAKNTVNLQMNSLKPEDTAVYYCAKEYNDGYFPTFDYDYWGQGTQVTVSS | low polyreactivity |
| QVQLVESGGGLFQAGGSLRLSCAASVSIFSWYTMGWYRQAPGKERELDAAITSSGGSTYYADSVKGRFTISRDNAKNTVYLQMNSLKPEDTAVYYCAAKSWFYYLHRPYVRRYDYWGQGTQVTVSS | high polyreactivity |
| QVQLVESGGGLFQAGGSLRLSCADYGSTFRTYVMGWYRQAPGKESEFVAAITNGISTNYADSVKGRFTISRDNAKYTFYLQMNSLKPEDTAVYYCAARVRRGSTQAQYYYWGQGTQVTVSS | high polyreactivity |
